Positions count from the first letter of the chain named.
B1: T3: wheat EPSPS mutant, SEQ ID NO: 20, mutations S269(247)G and P118(101)S (protein)
chain: MATSVAAPAAPAGAEEVVLQPIREISGAVQLPGSKSLSNRILLLSALSEGTTVVDNLLNSEDVHYMLEALEALGLSVEADKVAKRAVVVGCGGRFPVEKDAKEEVKLFLGNAGTAMRSLTAAVVAAGGNATYVLDGVPRMRERPIGDLVVGLQQLGADVDCFLGTNCPPVRINGKGGLPGGKVKLSGSISSQYLSSLLMAAPLALEDVEIEIIDKLISVPYVEMTLKLMEHFGVTAEHSDSWDRFYIKGGQKYKSPGNAYVEGDASSAGYFLAGAAITGGTVTVEGCGTTSLQGDVKFAEVLEMMGAKVTWTDTSVTVTGPPRQPFGRKHLKAVDVNMNKMPDVAMTLAVVALFADGPTAIRDVASWRVKETERMVAIRTELTKLGATVEEGPDYCIITPPEKLNITAIDTYDDHRMAMAFSLAACAEVPVTIRDPGCTRKTFPNYFDVLSTFVKN
B2: T1: wheat EPSPS mutant, SEQ ID NO: 16, mutation S269(247)G (protein)
chain: B1 chain with S118P
B3: T5: wheat EPSPS mutant, SEQ ID NO: 24, mutations L216(195)P and S269(247)G (protein)
chain: B1 chain with S118P, L216P
B4: T4: wheat EPSPS mutant, SEQ ID NO: 22, mutation L216(195)P (protein)
chain: B1 chain with S118P, L216P, G269S
B5: T0: wild-type wheat EPSPS, amino acid sequence SEQ ID NO: 14; control (protein, listed as Triticum aestivum)
chain: B1 chain with S118P, G269S
B6: T2: wheat EPSPS mutant, SEQ ID NO: 18, merely containing the mutation P118(101)S; control (protein)
chain: B1 chain with G269S
B7: G0: wild-type soybean EPSPS, amino acid sequence SEQ ID NO: 2; control (protein)
chain: MAAAEKPSTAPEIVLEPIKDISGTITLPGSKSLSNRILLLAALSEGTTVVDNLLYSEDIHYMLGALRTLGLRVEDDQTTKQAIVEGCGGLFPTIKESKDEINLFLGNAGTAMRPLTAAVVAAGGNASYVLDGVPRMRERPIGDLVAGLKQLGADVDCFLGTNCPPVRVNGKGGLPGGKVKLSGSVSSQYLTALLMAAPLALGDVEIEIVDKLISVPYVEMTLKLMERFGVSVEHSGDWDKFLVHGGQKYKSPGNAFVEGDASSASYFLAGAAVTGGTITVNGCGTSSLQGDVKFAEVLEKMGAKVTWSENSVTVTGPPQDSSGQKVLQGIDVNMNKMPDVAMTLAVVALFANGQTTIRDVASWRVKETERMIAICTELRKLGATVEEGPDYCVITPPEKLNVTAIDTYDDHRMAMAFSLAACGDVPVTIKDPGCTRKTFPDYFEVLERFTRH
modifications: Glycine max
notes: control
B8: G2: soybean EPSPS mutant, SEQ ID NO: 6, merely containing the mutation P114(101)S; control (protein)
chain: B7 chain with P114S
B9: G5: soybean EPSPS mutant, SEQ ID NO: 12, mutations S265(247)G and P114(101)S (protein)
chain: B7 chain with P114S, S265G
B10: G1: soybean EPSPS mutant, SEQ ID NO: 4, mutation L212(195)P (protein)
chain: B7 chain with L212P
B11: G4: soybean EPSPS mutant, SEQ ID NO: 10, mutation S265(247)G (protein)
chain: B7 chain with S265G
B12: G3: soybean EPSPS mutant, SEQ ID NO: 8, mutations L212(195)P and P114(101)S (protein)
chain: B7 chain with P114S, L212P

The molecules below were run on double knockout E. coli (EPSPS defective E. coli, EDCE) (assay: growth of EPSPS defective E. coli transformed by the EPSPS gene in M9 culture media containing different glyphosate concentrations). Conditions: not given.
Type: cell-based, E. coli DH5α
Description: A method for detecting the glyphosate resistance of the soybean EPSPS mutant G1 provided in Example 1 and the soybean EPSPS mutant G3 provided in Example 2 is as follows:
according to the sequence of the nucleic acid molecule provided in the example, synthesizing the encoding gene that encodes the soybean EPSPS mutant G1 or G3 using a chemical synthesis method, introducing enzyme sites (Pac1 and Sbf1) at two ends thereof, connecting to an expression vector (for example, a pADV5 vector, the structure of which is as shown in FIG. 15) that has undergone the same restriction enzyme digestion treatment under the action of ligase after restriction enzyme digestion, then transforming double knockout E. coli, picking positive colonies after verification, inoculating the positive colonies to M9 culture media containing different glyphosate concentrations for growth, and observing the growth situation of the E. coli.
The wild-type soybean EPSPS (with an amino acid sequence represented by SEQ ID NO: 2 and an encoding gene sequence represented by SEQ ID NO: 1) and the soybean EPSPS mutant G2 (with an amino acid sequence represented by SEQ ID NO: 6, and a corresponding encoding gene sequence represented by SEQ ID NO: 5) merely containing the mutation P114(101)S were taken as controls.
In the above, the M9 basal culture medium can be prepared by the following method:
5×M9 salt solution: 6.78 g of Na2HPO4, 3.0 g of KH2PO4, 0.5 g of NaCl, and 1.0 g of NH4Cl were weighed, added with ddH2O to 200 ml, and subjected to high-temperature and high-pressure sterilization treatment;
20% glucose: 20 g of glucose was weighed, added with 80 ml of ddH2O for dissolving, diluted to 100 ml, and subjected to filtration and sterilization treatment;
1.0 M MgSO4: 24.6 g of MgSO4-7H2O was weighed, dissolved with 80 ml of ddH2O, diluted to 100 ml, and subjected to sterilization treatment;
1.0 M CaCl2: 11.1 g of CaCl2 was weighed, dissolved with 80 ml of ddH2O, diluted to 100 ml, and subjected to sterilization treatment; and
1000 ml of the M9 basal culture media were prepared by adding ddH2O to 200 ml of 5×M9 salt solution, 20 ml of 20% glucose, 2 ml of 1.0 M MgSO4 and 0.1 ml of 1.0 M CaCl2 to make up to 1000 ml.
In the above, the E. coli used was double knockout E. coli, namely, EPSPS defective E. coli (E. coli DH5α with EPSPS gene and C-P Lyase gene being knocked out, named as EDCE, wherein for a preparation method thereof, reference can be made to a Chinese invention patent with the filing number CN2016103256926).
The glyphosate resistance of the soybean EPSPS mutant G4 provided in Example 3 and the soybean EPSPS mutant G5 provided in Example 4 was verified with reference to the detection method in Experiment Example 1.
The wild-type wheat EPSPS (with an amino acid sequence represented by SEQ ID NO: 14, and a corresponding encoding gene sequence represented by SEQ ID NO: 13) and the wheat EPSPS mutant T2 (with an amino acid sequence represented by SEQ ID NO: 18, and a corresponding encoding gene sequence represented by SEQ ID NO: 17) merely containing the mutation P118(101)S were taken as controls to verify the glyphosate resistance of the wheat EPSPS mutants T1 and T3 provided in Example 5 and Example 6, and reference can be made to Experiment Example 1 for the method.
A method for verifying the glyphosate resistance of the wheat EPSPS mutants T4, T5, and T6 provided in Examples 7-9 is the same as that in Experiment Example 3.
The wild-type rice EPSPS R0 (with an amino acid sequence represented by SEQ ID NO: 28, and a corresponding encoding gene sequence represented by SEQ ID NO: 27) and the rice EPSPS mutant R2 (with an amino acid sequence represented by SEQ ID NO: 32, and a corresponding encoding gene sequence represented by SEQ ID NO: 31) merely containing the mutation P116(101)S were taken as controls to verify the glyphosate resistance of the rice EPSPS mutants R1 and R3 provided in Examples 10 and 11, and reference can be made to Experiment Example 1 for the method. […]
For B1, the “glyphosate resistance (overall statement)” value was “have glyphosate resistance”.
In the case of B2, the “glyphosate resistance (overall statement)” value is reported as “have glyphosate resistance”.

Same assay, conditions: concluded from growth of defective E. coli at 0 mM glyphosate
With B3 the EPSPS enzyme activity was “normal EPSPS enzyme activity”.
For B4, the EPSPS enzyme activity was “normal EPSPS enzyme activity”.

Same assay, conditions: culture media containing 0 mM glyphosate
With B5 the “growth of the E. coli transformed by the EPSPS” value (“growth … by the EPSPS” for short) was “could grow”.
B1 was tested, and the “growth … by the EPSPS” value was “could grow”.
With B3 the “growth … by the EPSPS” value was “could grow”.
In the case of B6, the “growth … by the EPSPS” value is reported as “could grow”.
B4 was tested, and the “growth … by the EPSPS” value was “could grow”.
For B2, the “growth … by the EPSPS” value was “could grow”.
With B7 the “growth … by the EPSPS” value was “could grow”.
With B8 the “growth … by the EPSPS” value was “could grow”.
With B9 the “growth … by the EPSPS” value was “could grow”.
For B10, the “growth … by the EPSPS” value was “could grow”.
With B11 the “growth … by the EPSPS” value was “could grow”.
In the case of B12, the “growth … by the EPSPS” value is reported as “could grow”.

Same assay, conditions: culture media containing 1 mM glyphosate
For B5, the “growth … by the EPSPS” value was “substantially could not grow”.
With B1 the “growth … by the EPSPS” value was “could grow normally”.
In the case of B3, the “growth … by the EPSPS” value is reported as “could grow normally”.
B6 was tested, and the “growth … by the EPSPS” value was “could grow normally”.
B4 was tested, and the “growth … by the EPSPS” value was “could grow normally”.
For B2, the “growth … by the EPSPS” value was “could grow normally” and the “growth of the transformed E. coli compared with E. coli transformed by the control EPSPS named in the value” was “obviously superior to that of the E. coli transformed by T0”.
B7 was tested, and the “growth … by the EPSPS” value was “substantially could not grow”.
In the case of B10, the “growth of the transformed E. coli compared with E. coli transformed by the control EPSPS named in the value” is reported as “obviously superior to that of the E. coli transformed by G0”.

Same assay, conditions: culture media containing 5 mM glyphosate
B3 was tested, and the “growth … by the EPSPS” value was “grew obviously”.
B6 was tested, and the “growth … by the EPSPS” value was “could grow”.
With B4 the “growth … by the EPSPS” value was “did not grow obviously”.
In the case of B2, the “growth … by the EPSPS” value is reported as “did not grow obviously”.
For B7, the “growth … by the EPSPS” value was “substantially could not grow”.
In the case of B11, the “growth of the transformed E. coli compared with E. coli transformed by the control EPSPS named in the value” is reported as “superior to that of the E. coli transformed by G0”.

Same assay, conditions: culture media containing 10 mM glyphosate
B1 was tested, and the “growth … by the EPSPS” value was “could grow” and the “growth of the transformed E. coli compared with E. coli transformed by the control EPSPS named in the value” was “obviously superior to that of the E. coli transformed by T2”.
With B6 the “growth … by the EPSPS” value was “could grow”.
In the case of B8, the “growth … by the EPSPS” value is reported as “could grow”.
For B9, the “growth … by the EPSPS” value was “could grow” and the “growth of the transformed E. coli compared with E. coli transformed by the control EPSPS named in the value” was “obviously superior to that of the E. coli transformed by G2”.

Same assay, conditions: culture media containing 20 mM glyphosate
In the case of B6, the “growth … by the EPSPS” value is reported as “could grow”.
For B8, the “growth … by the EPSPS” value was “could grow”.
In the case of B12, the “growth … by the EPSPS” value is reported as “could grow” and the “growth of the transformed E. coli compared with E. coli transformed by the control EPSPS named in the value” is reported as “superior to that of the E. coli transformed by the soybean EPSPS mutant G2”.
